Test results from PMC10401628.

Target: human α-synuclein E57K mutant (6xHis:α-Syn-E57K) (human) (UniProt P37840)

Chain of bacterial Hsp90 chaperone with C-terminal hexahistidine (Hsp90:6xHis) (P0A6Z3 whole entry): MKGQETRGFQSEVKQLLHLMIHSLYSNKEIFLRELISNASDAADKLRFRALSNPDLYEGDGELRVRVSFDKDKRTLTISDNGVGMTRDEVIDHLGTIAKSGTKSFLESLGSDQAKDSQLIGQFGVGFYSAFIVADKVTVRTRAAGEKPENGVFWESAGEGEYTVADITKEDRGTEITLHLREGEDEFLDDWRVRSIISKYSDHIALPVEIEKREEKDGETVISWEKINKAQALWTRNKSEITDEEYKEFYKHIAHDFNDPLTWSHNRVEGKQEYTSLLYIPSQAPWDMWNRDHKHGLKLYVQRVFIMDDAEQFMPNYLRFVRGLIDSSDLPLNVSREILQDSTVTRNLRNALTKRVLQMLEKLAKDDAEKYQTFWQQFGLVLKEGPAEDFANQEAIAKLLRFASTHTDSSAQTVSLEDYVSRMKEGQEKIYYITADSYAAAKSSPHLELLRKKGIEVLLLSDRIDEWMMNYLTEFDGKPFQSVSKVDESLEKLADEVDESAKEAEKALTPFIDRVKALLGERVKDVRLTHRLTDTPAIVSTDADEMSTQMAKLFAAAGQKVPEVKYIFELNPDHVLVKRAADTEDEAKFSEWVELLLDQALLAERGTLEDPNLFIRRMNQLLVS

insoluble fraction of α-Syn-E57K after incubation under amyloidogenic conditions with free Hsp90 (18.42% without Hsp90); centrifugation, SDS-PAGE, band quantification: 5.67%
Substance: bacterial Hsp90 chaperone with C-terminal hexahistidine (Hsp90:6xHis) (from UniProt P0A6Z3 1-624) (natural protein)
